± gives the standard deviation of the averaged measurements.
B1: library; a variant is named by its letters at N, in order (parent)
chain: GAGACCGCAACTGAAAAGTTGTGGNNNNNATAGTGAGTCGCTGCCTGCAAAGACACAACT

Variants of: B1
Test: ligation selection enrichment (abundance after / before one-round selection) (fold); higher = more template-directed ligation activity
Conditions: with T7Psub CACGGAUGCUAAUACGACUCACUAUA; MgCl2 25 mM; 42 °C; 4 h; pH 8.5
How it was run: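 RNA ligase library with five randomized core positions (0.75 μM, T7-transcribed) was reacted with RNA substrate (6 μM) in 50 mM EPPS pH 8.5, 25 mM MgCl2 at 42 °C for 4 h, in two independent experiments. Ligated products were PAGE-purified, reverse transcribed, barcoded by PCR and MiSeq-sequenced. Reads with quality score ≥30 at all randomized positions were counted. Enrichment was abundance after ligation divided by abundance before ligation.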
Work on GAGACCGCAACTGAAAAGTTGTGGCGCACATAGTGAGTCGCTGCCTGCAAAGACACAACT [CGCAC] yielded a ligation selection enrichment of 0.339 ± 0.028.
For GAGACCGCAACTGAAAAGTTGTGGAGCACATAGTGAGTCGCTGCCTGCAAAGACACAACT [AGCAC], the ligation selection enrichment was 0.319 ± 0.037.
Variant GAGACCGCAACTGAAAAGTTGTGGTGCACATAGTGAGTCGCTGCCTGCAAAGACACAACT [TGCAC] has a ligation selection enrichment of 0.235 ± 0.059.
GAGACCGCAACTGAAAAGTTGTGGGGCAGATAGTGAGTCGCTGCCTGCAAAGACACAACT [GGCAG] showed a ligation selection enrichment of 0.55 ± 0.028.
GAGACCGCAACTGAAAAGTTGTGGAGCAGATAGTGAGTCGCTGCCTGCAAAGACACAACT [AGCAG] gave a ligation selection enrichment of 0.325 ± 0.015.
GAGACCGCAACTGAAAAGTTGTGGCGCAGATAGTGAGTCGCTGCCTGCAAAGACACAACT [CGCAG] showed a ligation selection enrichment of 0.2266 ± 0.0013.
With GAGACCGCAACTGAAAAGTTGTGGTGCAGATAGTGAGTCGCTGCCTGCAAAGACACAACT [TGCAG] the ligation selection enrichment was 0.216 ± 0.0033.
For GAGACCGCAACTGAAAAGTTGTGGGGCATATAGTGAGTCGCTGCCTGCAAAGACACAACT [GGCAT], the ligation selection enrichment was 5.15 ± 1.1.
In the case of GAGACCGCAACTGAAAAGTTGTGGCGCATATAGTGAGTCGCTGCCTGCAAAGACACAACT [CGCAT], the ligation selection enrichment is reported as 3.7 ± 0.39.
GAGACCGCAACTGAAAAGTTGTGGAGCATATAGTGAGTCGCTGCCTGCAAAGACACAACT [AGCAT] gave a ligation selection enrichment of 3.55 ± 0.68.
GAGACCGCAACTGAAAAGTTGTGGTGCATATAGTGAGTCGCTGCCTGCAAAGACACAACT [TGCAT] showed a ligation selection enrichment of 3.27 ± 0.44.
With GAGACCGCAACTGAAAAGTTGTGGGGCCAATAGTGAGTCGCTGCCTGCAAAGACACAACT [GGCCA] the ligation selection enrichment was 0.241 ± 0.083.
GAGACCGCAACTGAAAAGTTGTGGAGCCAATAGTGAGTCGCTGCCTGCAAAGACACAACT [AGCCA] gave a ligation selection enrichment of 0.161 ± 0.018.
In the case of GAGACCGCAACTGAAAAGTTGTGGCGCCAATAGTGAGTCGCTGCCTGCAAAGACACAACT [CGCCA], the ligation selection enrichment is reported as 0.146 ± 0.048.
For GAGACCGCAACTGAAAAGTTGTGGTGCCAATAGTGAGTCGCTGCCTGCAAAGACACAACT [TGCCA], the ligation selection enrichment was 0.144 ± 0.028.
Work on GAGACCGCAACTGAAAAGTTGTGGTGCCCATAGTGAGTCGCTGCCTGCAAAGACACAACT [TGCCC] yielded a ligation selection enrichment of 0.1927 ± 0.0019.
Variant GAGACCGCAACTGAAAAGTTGTGGGGCCCATAGTGAGTCGCTGCCTGCAAAGACACAACT [GGCCC] has a ligation selection enrichment of 0.192 ± 0.0055.
GAGACCGCAACTGAAAAGTTGTGGAGCCCATAGTGAGTCGCTGCCTGCAAAGACACAACT [AGCCC] gave a ligation selection enrichment of 0.167 ± 0.05.
For GAGACCGCAACTGAAAAGTTGTGGCGCCCATAGTGAGTCGCTGCCTGCAAAGACACAACT [CGCCC], the ligation selection enrichment was 0.161 ± 0.004.
Work on GAGACCGCAACTGAAAAGTTGTGGGGCCGATAGTGAGTCGCTGCCTGCAAAGACACAACT [GGCCG] yielded a ligation selection enrichment of 0.746 ± 0.042.
With GAGACCGCAACTGAAAAGTTGTGGAGCCGATAGTGAGTCGCTGCCTGCAAAGACACAACT [AGCCG] the ligation selection enrichment was 0.709 ± 0.025.
Variant GAGACCGCAACTGAAAAGTTGTGGTGCCGATAGTGAGTCGCTGCCTGCAAAGACACAACT [TGCCG] has a ligation selection enrichment of 0.559 ± 0.02.
Work on GAGACCGCAACTGAAAAGTTGTGGCGCCGATAGTGAGTCGCTGCCTGCAAAGACACAACT [CGCCG] yielded a ligation selection enrichment of 0.43 ± 0.033.
With GAGACCGCAACTGAAAAGTTGTGGCGCCTATAGTGAGTCGCTGCCTGCAAAGACACAACT [CGCCT] the ligation selection enrichment was 0.779 ± 0.21.
With GAGACCGCAACTGAAAAGTTGTGGGGCCTATAGTGAGTCGCTGCCTGCAAAGACACAACT [GGCCT] the ligation selection enrichment was 0.408 ± 0.092.
With GAGACCGCAACTGAAAAGTTGTGGTGCCTATAGTGAGTCGCTGCCTGCAAAGACACAACT [TGCCT] the ligation selection enrichment was 0.408 ± 0.18.
GAGACCGCAACTGAAAAGTTGTGGAGCCTATAGTGAGTCGCTGCCTGCAAAGACACAACT [AGCCT] gave a ligation selection enrichment of 0.307 ± 0.093.
With GAGACCGCAACTGAAAAGTTGTGGCGCGAATAGTGAGTCGCTGCCTGCAAAGACACAACT [CGCGA] the ligation selection enrichment was 1.1 ± 0.18.
GAGACCGCAACTGAAAAGTTGTGGAGCGAATAGTGAGTCGCTGCCTGCAAAGACACAACT [AGCGA] was tested, and the ligation selection enrichment was 2.74 ± 0.25.
Work on GAGACCGCAACTGAAAAGTTGTGGTGCGAATAGTGAGTCGCTGCCTGCAAAGACACAACT [TGCGA] yielded a ligation selection enrichment of 2.41 ± 0.15.
Variant GAGACCGCAACTGAAAAGTTGTGGGGCGAATAGTGAGTCGCTGCCTGCAAAGACACAACT [GGCGA] has a ligation selection enrichment of 1.52 ± 0.26.
Work on GAGACCGCAACTGAAAAGTTGTGGGGCGCATAGTGAGTCGCTGCCTGCAAAGACACAACT [GGCGC] yielded a ligation selection enrichment of 0.2927 ± 0.0028.
Work on GAGACCGCAACTGAAAAGTTGTGGAGCGCATAGTGAGTCGCTGCCTGCAAAGACACAACT [AGCGC] yielded a ligation selection enrichment of 0.269 ± 0.043.
Variant GAGACCGCAACTGAAAAGTTGTGGCGCGCATAGTGAGTCGCTGCCTGCAAAGACACAACT [CGCGC] has a ligation selection enrichment of 0.223 ± 0.025.
In the case of GAGACCGCAACTGAAAAGTTGTGGTGCGCATAGTGAGTCGCTGCCTGCAAAGACACAACT [TGCGC], the ligation selection enrichment is reported as 0.217 ± 0.02.
With GAGACCGCAACTGAAAAGTTGTGGCGCGGATAGTGAGTCGCTGCCTGCAAAGACACAACT [CGCGG] the ligation selection enrichment was 0.533 ± 0.12.
In the case of GAGACCGCAACTGAAAAGTTGTGGGGCGGATAGTGAGTCGCTGCCTGCAAAGACACAACT [GGCGG], the ligation selection enrichment is reported as 0.252 ± 0.022.
In the case of GAGACCGCAACTGAAAAGTTGTGGTGCGGATAGTGAGTCGCTGCCTGCAAAGACACAACT [TGCGG], the ligation selection enrichment is reported as 0.221 ± 0.0095.
In the case of GAGACCGCAACTGAAAAGTTGTGGAGCGGATAGTGAGTCGCTGCCTGCAAAGACACAACT [AGCGG], the ligation selection enrichment is reported as 0.213 ± 0.012.
GAGACCGCAACTGAAAAGTTGTGGCGCGTATAGTGAGTCGCTGCCTGCAAAGACACAACT [CGCGT] showed a ligation selection enrichment of 0.237 ± 0.0082.
With GAGACCGCAACTGAAAAGTTGTGGAGCGTATAGTGAGTCGCTGCCTGCAAAGACACAACT [AGCGT] the ligation selection enrichment was 0.191 ± 0.054.
In the case of GAGACCGCAACTGAAAAGTTGTGGGGCGTATAGTGAGTCGCTGCCTGCAAAGACACAACT [GGCGT], the ligation selection enrichment is reported as 0.168 ± 0.023.
GAGACCGCAACTGAAAAGTTGTGGTGCGTATAGTGAGTCGCTGCCTGCAAAGACACAACT [TGCGT] was tested, and the ligation selection enrichment was 0.168 ± 0.021.
Variant GAGACCGCAACTGAAAAGTTGTGGGGCTAATAGTGAGTCGCTGCCTGCAAAGACACAACT [GGCTA] has a ligation selection enrichment of 0.228 ± 0.037.
With GAGACCGCAACTGAAAAGTTGTGGAGCTAATAGTGAGTCGCTGCCTGCAAAGACACAACT [AGCTA] the ligation selection enrichment was 0.209 ± 0.011.

From the supplement of paper PMC10219994
